US20150320832A1

Target: Flightless I protein (human, endogenous in MET-1 and CC keratinocytes) (human) (UniProt Q13045)
Experiment: cell-based or functional assay

Sequence of UniProt Q13045 (Q13045 whole entry): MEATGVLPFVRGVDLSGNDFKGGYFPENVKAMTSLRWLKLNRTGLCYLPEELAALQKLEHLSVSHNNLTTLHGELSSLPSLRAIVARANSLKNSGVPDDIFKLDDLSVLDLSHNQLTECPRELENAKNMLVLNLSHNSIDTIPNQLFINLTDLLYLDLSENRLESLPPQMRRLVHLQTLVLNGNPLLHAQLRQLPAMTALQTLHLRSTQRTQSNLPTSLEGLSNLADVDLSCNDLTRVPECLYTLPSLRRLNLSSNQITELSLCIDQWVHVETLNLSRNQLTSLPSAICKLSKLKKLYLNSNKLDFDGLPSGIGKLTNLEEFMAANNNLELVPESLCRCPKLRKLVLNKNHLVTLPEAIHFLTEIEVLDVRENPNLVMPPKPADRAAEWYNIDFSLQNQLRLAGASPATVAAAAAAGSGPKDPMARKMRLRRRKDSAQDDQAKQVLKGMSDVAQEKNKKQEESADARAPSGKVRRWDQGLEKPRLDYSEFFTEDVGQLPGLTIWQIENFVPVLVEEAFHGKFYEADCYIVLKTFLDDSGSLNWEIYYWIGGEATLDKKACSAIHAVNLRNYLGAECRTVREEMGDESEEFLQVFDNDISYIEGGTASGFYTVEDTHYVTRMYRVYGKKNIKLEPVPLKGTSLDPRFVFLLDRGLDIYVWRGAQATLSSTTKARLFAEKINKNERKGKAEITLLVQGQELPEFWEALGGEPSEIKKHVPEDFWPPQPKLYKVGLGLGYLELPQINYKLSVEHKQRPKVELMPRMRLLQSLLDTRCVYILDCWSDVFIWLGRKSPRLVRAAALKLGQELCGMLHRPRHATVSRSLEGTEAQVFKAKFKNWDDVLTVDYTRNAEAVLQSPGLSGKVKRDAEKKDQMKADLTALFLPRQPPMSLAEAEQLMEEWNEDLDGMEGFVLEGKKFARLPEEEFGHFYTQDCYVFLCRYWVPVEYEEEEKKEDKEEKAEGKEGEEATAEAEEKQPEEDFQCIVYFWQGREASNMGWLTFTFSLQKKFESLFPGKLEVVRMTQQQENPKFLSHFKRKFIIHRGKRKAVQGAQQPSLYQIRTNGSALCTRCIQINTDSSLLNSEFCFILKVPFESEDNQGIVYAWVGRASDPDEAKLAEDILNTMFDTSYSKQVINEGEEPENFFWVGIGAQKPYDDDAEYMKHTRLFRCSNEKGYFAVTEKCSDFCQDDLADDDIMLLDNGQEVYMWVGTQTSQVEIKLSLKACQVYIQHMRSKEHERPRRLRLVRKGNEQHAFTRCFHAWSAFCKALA

decrease in cell invasion properties of RDEB-SCC (CC) cells, 3D organotypic model: 30%
decrease in cell invasion properties of sporadic SCC (MET-1) cells, 3D organotypic model: 60%
Substance: rFLAP-1 protein (LRRFIP1 (657-784) Protein-H00009208-Q01, Abnova Technologies) (from UniProt Q32MZ4 657-784)
